Laboratory results: US20260258115A1 (MAPP BIOPHARMACEUTICAL, published 2026)

Tests used:
RSV F on RSV-A2 virus = RSV F on RSV-A2 virus (Respiratory syncytial virus, RSV-A2, UniProt P03420 26-574); assay: cell-based or functional assay
[1] = target: RSV postfusion F (postF), F ΔFP (Respiratory syncytial virus, UniProt P03420 26-513); assay: BLI, IgG on anti-human IgG sensor
[2] = target: RSV prefusion F (preF), DS-Cav1 (Respiratory syncytial virus, UniProt P03420 26-513); assay: BLI, IgG on anti-human IgG sensor, 100 nM antigen
[3] = target: RSV F on recombinant mKate-RSV A2 virus (Respiratory syncytial virus A2, UniProt P03420 26-574); assay: cell-based or functional assay
[4] = target: RSV F on recombinant mKate-RSV B 18537 virus (Respiratory syncytial virus B 18537, UniProt P13843 26-574); assay: cell-based or functional assay
[5] = target: RSV prefusion F, subtype A (preF, DS-Cav1 trimer) (Respiratory syncytial virus subtype A, UniProt P03420 26-513); assay: BLI, IgG apparent affinity

| Binder | Neutralization IC50 (RSV subtype A) (RSV F on RSV-A2 virus) | binding result [1] | Kd [2] | Neut IC50 (ug/ml) subtype A [3] | Neut IC50 (ug/ml) subtype B [4] | Kd [5] |
| --- | --- | --- | --- | --- | --- | --- |
| ADI-41756 (antibody, V domains shown) VH: EVQLLESGGGVVQPGRSLRLSCAASGLSFNSFGMHWVRQAPGKGLEWVAVIAYDGSNKYYADSVKGRFSISRDNSKNTLYLQMDSLRAEDTAVYYCAKAEAPNFSWSGYLSAFDIWGQGTTVTVSS VL: QPVLTQPASVSGSPGQSVTVSCTGTSDDVGDYNYVSWYQQHPGKAPKLLIFEVSDRPSGVSTRFSGSKSGNTASLTISGLQTEDEADYYCSSYTSRNLYVFGTGTKVTVL | > 25 µg/mL | no binding (tested: 100 nM antigen) | 29 nM | – | – | – |
| ADI-41787 (antibody, V domains shown) VH: EVQLLESGGGVVQPGRSLRLSCAASGFTFSSSGMHWVRQAPGKGLEWVAIISSDGSKHYYADSVKGRFTISRDNSKNTLYLEMNSLRAEDSAVYYCAREGVWSGFFVDTGTDFRHHGMDVWGQGTTVTVSS VL: SYELTQPPSVSVSPGQTARITCSGDALPKKFAFWYQQKSGQAPLLVIHEDNKRPSGIPERFSGSSSGTLATLTISGAQVEDEADYYCYSIDTSANLGVFGGGTKLTVL | 0.38 µg/mL | no binding (tested: 100 nM antigen) | 1.56 nM | – | – | – |
| ADI-41790 (antibody, V domains shown) VH: QVQLVQSGAEVKKPGSSVKVSCKASGGTFSNYGISWVRQAPGQGLERLGGIIPIYGTANHAQNFQGRVTITADESTSTAYMELSSLRSEDTAVYYCARDGTFVRYYGMDVWGQGTTVTVSS VL: EIVLTQSPATLFLSPGERATLSCRASQSVSNYLAWFQQKPGQAPRLLIYDTSIRATGIPARFSGSGSGTDFTLTISSLEPEDFAFYYCQQRSNWPPTFGGGTKLEIK | > 25 µg/mL | no binding (tested: 100 nM antigen) | 3.15 nM | – | – | – |
| ADI-41809 (antibody, V domains shown) VH: QVTLKESGGGLVQPGGSLRLSCAASGFTFSNYAMSWVRQAPGKGLEWVSAISHSDSRTFYADSVKGRFTISRDNSKNTLFLQMDSLRAHDTAVYYCANVDPSSVTYYGYYYGMDVWGQGTTVTVSS VL: QSVLTQPPSASGTPGQRVTISCSGSSSNIGKNFVYWYQQFPGTAPKRLIYRNNQRPSGVPDRFSGSRSGTSASLAISGLRSEDEADYYCATWDDSLSGWVFGGGTKLTVL | > 25 µg/mL | no binding (tested: 100 nM antigen) | 2.65 nM | – | – | – |
| ADI-21080 (antibody, V domains shown) VH: EVQLLESGGGLVKPGGSLRLSCEVSGFRLSDYYMSWIRQAPGKGLEWVSHISGGSTYTNYADSVKGRFTISRDNGKKSMYLQMNSLRAEDTALYYCAKWGSGGPEAFDIWGRGTMVTVSS VL: QSALIQPPSVSGAPGQRVTISCTGSSSNIGAGYDVHWYQQIPGTAPKLLIYGNNNRPSGVPDRFSGSKSGTSASLAITGLQAEDEADYYCQSYDNSLSGSVVFGGGTKLTVL | – | – | – | 0.1 µg/mL | 0.17 µg/mL | 0.36 nM |
| ADI-36673 (antibody, V domains shown, also called Ab 830; Antibody Number 830) VH: QVQLVQSGGGLVKPGGSLRLSCAASGFTFRDFYMSWIRQAPGKGLEWVSNISPSSTYTNYADSVKGRFTISRDNAKNSLYLQMNSLRAEDTAVYYCVKSEGYSSGWYDYWGQGTLVTVSS VL: QPVLTQPPSVSGAPGQRVTISCTGSSSNIGAGYDVNWYHQLPGAAPKLLIYTNSNRPSGVPDRFSGSKSGTSASLAITGLQAEDEADYYCQSYDSSLSGYVFGTGTKLTVL | 0.02 µg/mL | no binding (tested: 100 nM antigen) | 0.62 nM | – | – | – |
| ADI-36676 (antibody, V domains shown, also called Ab 832; Antibody Number 832) VH: EVQLLESGGGVVQPGRSLRLSCAASGFSFRNYDMHWVRQAPGKGLEWVAIISYDGSNKYADSVKGRFTISRDTSKNTLYLQMNSLRVEDTAVYYCARADSSGYYKGSEYFQHWGQGTLVTVSS VL: SYELTQLPSVSVAPGQTARITCGGNNIGTKSVQWYQHKPGQAPVLVVYDDSDRPSDIPERFSGSNSGNTATLTISRVEAGDEADYYCQVWDSSSDHYVFGTGTKLTVL | 0.006 µg/mL | no binding (tested: 100 nM antigen) | 0.282 nM | – | – | – |
| ADI-36678 (antibody, V domains shown) VH: EVQLVQSGGGLVQPGGSLRVSCAASGLTVSTNYMSWVRQLPGKGLEWVSVIYSGGNTYYADSVKGRFTISRDNSKNIVYLEMNSLRIEDTAVYYCARAHLNNWFVSVTDTKDYYFDYWGQGTLVTVSS VL: SYELTQPPSVSVLPGQTASITCSGDKLGDKYASWYQQKPGQSPILVVFQDDKRPSGIPERFSGSNSGNTATLTISGTQATDEADYYCQACDRNTGVFGTGTKLTVL | 0.006 µg/mL | no binding (tested: 100 nM antigen) | 0.716 nM | – | – | – |
| ADI-41567 (antibody, V domains shown, also called Ab 845; Antibody Number 845) VH: QVQLQQWGAGLLKPSETLSLTCEVYGGSFSGYYWTWFRQPPGEGLEWIGEINHSGGTNYNPSLKSRVTMSVDASINQFSLQLSSVTAADTSVYYCARGHYYNTNDFYGLFDYWGQGTLVTVSS VL: DIRLTQSPSFLSASVGDRVTITCRASQGISTYLAWYQQKPGKAPKLLLYAASTLHSGVPSRFSGSGSGTEFTLTISSLQPEDFATYYCQQLNRYPPSTFGPGTKLEIK | 0.0505 µg/mL | no binding (tested: 100 nM antigen) | 0.717 nM | – | – | – |
| ADI-41578 (antibody, V domains shown, also called Ab 852; Antibody Number 852) VH: EVQLVESGGGVVQPGRSLRLSCAASGFTLSSYVMDWVRQAPGKGLEWVAVISYDGSSKYYADSVKGRFTVSRDNSNNAMYLQMNSLRAEDTAVYYCARDPYYDILTGYSYFDYWGHGTTVTVSS VL: SYVLTQPPSVSGAPRQTATITCGGNNIGSKSVNWYQQKPGQAPVLVVYDDSARPSGIPERFSGSNSGNTATLTVSSVEAGDEADYFCQVWDTSSAPYPWVFGGGTKLTVL | 0.0398 µg/mL | no binding (tested: 100 nM antigen) | 0.249 nM | – | – | – |
| ADI-41590 (antibody, V domains shown) VH: EVQLVQSGGGLVKPGGSLRLSCTASGFTFSDHYMSWIRQAPGKGLEWISYISSTSSFTNYANSVKGRFTISRDNAKNSLYLQMNSLRAEDTAVYYCARDRSILYSGYSLDYWGQGTLVTVSS VL: DIQMTQSPSSLSASVGDRVTISCRASQSILNYLNWYQHKPGKAPKLLIYAASSLQSGVPSRFSGSGSGTDFTLTISGLQPEDFATYYCQQSDSTRTFGQGTKVEIK | > 25 µg/mL | no binding (tested: 100 nM antigen) | 3.02 nM | – | – | – |
| ADI-41591 (antibody, V domains shown, also called Ab 865; Antibody Number 865) VH: QVTLKESGGGLVKPGGSLRLSCAASGFTFSDYYMSWIRQAPGKGLEWVSYISSSSSYTNYADSVKGRFTISRDNAKNSLYLQMNSLRAEDTAVYYCAREAVAAAGTDYFDYWGQGTLVTVSS VL: QSVLTQPPSVSGAPGQRVTISCTGSSSNIGAGYDVHWYQQPPRTAPKLLIYGNSNRPSGVPDRFSGSKSGTSASLAITGLQAEDEADYYCQSYDSSLSGYVFGTGTKLTVL | > 25 µg/mL | no binding (tested: 100 nM antigen) | 4.26 nM | – | – | – |
| ADI-41601 (antibody, V domains shown, also called Ab 875; Antibody Number 875) VH: EVQLLESGGGLVKPGGSLRLSCAGSGFRFSDYYMTWIRQAPGKGLEWVSYISSSSTYTYYTDSVKGRFTVSRDNAKNSLYLQMNTLRAEDTAIYYCAISNRYDSRTFYYDYWGQGTLVTVSS VL: QSVLTQPPSVSGAPGQRVIISCTGSSSNIGAGYDVHWYQQFPGTAPKLLIYGNNNRPSGVPERFSGSKSGTSASLAITGLQADDEADYYCQSYDSLSEVVFGGGTKVTVL | > 25 µg/mL | no binding (tested: 100 nM antigen) | 0.503 nM | – | – | – |
